For experiment [1], the target named is T1, human CD22-ECD-His protein (human, UniProt P20273 20-687).
T1 construct: Made in house in HEK293E; also called hCD22-ECD-His; recombinant human CD22-ECD His protein; not shown: His tag
T1 sequence: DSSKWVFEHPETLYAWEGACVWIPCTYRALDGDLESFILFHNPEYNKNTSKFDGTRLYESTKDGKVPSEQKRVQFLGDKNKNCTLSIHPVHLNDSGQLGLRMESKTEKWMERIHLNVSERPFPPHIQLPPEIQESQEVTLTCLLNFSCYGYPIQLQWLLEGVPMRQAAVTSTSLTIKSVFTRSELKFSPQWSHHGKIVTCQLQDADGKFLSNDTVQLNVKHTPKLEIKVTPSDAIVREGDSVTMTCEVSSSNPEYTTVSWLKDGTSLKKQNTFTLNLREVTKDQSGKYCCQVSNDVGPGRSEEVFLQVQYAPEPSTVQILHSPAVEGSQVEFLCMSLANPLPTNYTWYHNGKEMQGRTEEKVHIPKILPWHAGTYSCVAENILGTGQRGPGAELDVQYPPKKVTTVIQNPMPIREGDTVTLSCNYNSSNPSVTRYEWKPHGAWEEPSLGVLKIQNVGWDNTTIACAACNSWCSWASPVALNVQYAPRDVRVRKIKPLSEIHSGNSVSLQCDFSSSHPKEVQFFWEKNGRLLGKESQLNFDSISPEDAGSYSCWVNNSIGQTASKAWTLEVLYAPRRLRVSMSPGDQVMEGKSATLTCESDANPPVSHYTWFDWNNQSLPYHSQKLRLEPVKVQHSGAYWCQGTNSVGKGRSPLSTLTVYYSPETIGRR
The experiment can be described thus: ELISA, Ab 100.00 nM. The protocol:
(§1) In order to detect the binding activity of CD22 human-murine chimeric antibodies to CD22 protein, the purified human CD22-ECD-His protein obtained in Example 2 was diluted with PBS to a final concentration of 2 μg/mL, and then added to 96-well ELISA plate at 100 μl/well. The plate was sealed with plastic film and incubated overnight at 4° C., the plate was washed 2 times with PBS the next day, and then a blocking solution [PBS+2% (w/w) BSA] was added for blocking at room temperature for 2 hours. […] After incubation at 37° C. for 2 hours, the plate was washed 3 times with PBS. HRP (horseradish peroxidase)-labeled secondary antibody (purchased from Sigma, catalog number: A0170) was added, and incubated at 37° C. for 2 hours, and the plate was washed 5 times with PBS. TMB substrate was added at 50 μl/well, and incubated at room temperature for 30 minutes, then a stop solution (1.0 N HCl) was added at 50 μl/well.
A general note: ELISA stands for enzyme-linked immunosorbent assay.

Experiment [2] has as its target T1, human CD22-ECD-His protein. The experiment can be described thus: ELISA, Ab 0.001 nM. The protocol:
as §1

For experiment [3], the target named is T1, human CD22-ECD-His protein. As to the kind of experiment: ELISA, Ab 0.10 nM. The protocol:
as §1

Experiment [4] deals with T1, human CD22-ECD-His protein. The experiment can be described thus: ELISA, Ab 0.01 nM. The protocol:
as §1

The target of experiment [5] is T1, human CD22-ECD-His protein. The experiment can be described thus: ELISA, human CD22-ECD-His coated. The protocol:
as §1

The target in experiment [6] is T2, murine CD22 protein (ACROBiosystems, SI2-M52Ha) (murine, UniProt P35329 22-708).
T2 construct: extracellular domain; also called murine CD22-ECD; murine CD22-ECD-His
T2 sequence (looked up): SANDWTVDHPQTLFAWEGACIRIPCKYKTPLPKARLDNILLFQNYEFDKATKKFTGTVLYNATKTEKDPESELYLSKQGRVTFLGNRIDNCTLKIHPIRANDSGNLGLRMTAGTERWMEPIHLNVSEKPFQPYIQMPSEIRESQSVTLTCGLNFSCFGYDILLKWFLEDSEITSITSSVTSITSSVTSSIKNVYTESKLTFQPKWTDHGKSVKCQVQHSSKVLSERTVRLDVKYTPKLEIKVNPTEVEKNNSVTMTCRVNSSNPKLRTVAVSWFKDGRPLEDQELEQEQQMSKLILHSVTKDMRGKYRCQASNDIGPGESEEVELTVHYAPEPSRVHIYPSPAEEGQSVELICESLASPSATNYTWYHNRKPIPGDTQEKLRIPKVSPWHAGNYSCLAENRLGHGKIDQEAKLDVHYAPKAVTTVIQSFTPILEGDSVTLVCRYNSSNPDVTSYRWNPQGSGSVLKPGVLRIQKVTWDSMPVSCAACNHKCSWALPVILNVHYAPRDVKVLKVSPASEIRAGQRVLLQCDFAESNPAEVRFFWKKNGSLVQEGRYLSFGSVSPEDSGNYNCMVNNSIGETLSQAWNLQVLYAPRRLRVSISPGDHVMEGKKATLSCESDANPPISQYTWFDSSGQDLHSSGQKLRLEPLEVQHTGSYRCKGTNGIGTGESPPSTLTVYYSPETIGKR
As to the kind of experiment: ELISA, murine CD22-ECD-His coated. As to the method: as §1
In order to detect the species cross-binding activity of the chimeric antibodies, an ELISA plate was coated with commercial murine CD22 protein (ACROBiosystems, catalog number: SI2-M52Ha) and monkey CD22 protein (ACROBiosystems, catalog number: SI2-R52Ha), respectively, and the ELISA detection was performed according to the method in Example 5.1.

Experiment [7] concerns the target T1, human CD22-ECD-His protein. The experiment can be described thus: ELISA, Ab 0.0001 nM. As to the method:
as §1

Experiment [8] addresses T1, human CD22-ECD-His protein. As to the kind of experiment: ELISA, Ab 0.00001 nM. The protocol: as §1
Experiment [9] has as its target T1, human CD22-ECD-His protein. As to the kind of experiment: ELISA, Ab 10.00 nM. As to the method:
as §1

Another experiment deals with T3, human CD22 domain5-7-His (human, UniProt P20273 414-687).
T3 construct: also called hCD22 domain5-7-His; not shown: His tag
T3 sequence: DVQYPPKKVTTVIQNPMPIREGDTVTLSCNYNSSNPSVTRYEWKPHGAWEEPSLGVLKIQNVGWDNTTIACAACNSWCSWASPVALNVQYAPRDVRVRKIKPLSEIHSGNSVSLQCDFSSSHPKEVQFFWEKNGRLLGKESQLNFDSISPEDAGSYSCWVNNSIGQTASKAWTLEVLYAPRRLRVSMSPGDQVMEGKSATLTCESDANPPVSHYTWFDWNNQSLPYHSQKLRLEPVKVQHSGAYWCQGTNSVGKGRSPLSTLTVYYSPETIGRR
The experiment can be described thus: ELISA, human CD22 domain5-7-His coated.

As a reminder, the EC50 (read off the curve) is the concentration at which the effect is half-maximal. Read a low EC50 (read off the curve) as an effect from little substance.

B1: F2.121.9 (antibody, human IgG1, lambda, V domains shown)
VH: EVQLVESGGGLVKPGGSLKLSCAASGFTFSDYVMSWIRQTPEKRLEWVATISDAGSYTFYPDNLKGRFTISRDNAKNNLYLQMNHLTSEDTAFYYCAIIYFGNYGGYWGQGTLVTVSV
VL: QAVVTQESALTTSPGGTVVLTCRSNTGAVTTSNYANWVQEKPDHLFTGLIGGTSNRAPGVPVRFSGSLIGDKAALTITGAQTEDDAMYFCALWYSTHWVFGGGTKLTVLG
notes: Human-murine chimeric IgG1, lambda
As for B1, the OD450 came out at 2.11 OD450 in [1]; 0.69 OD450 in experiment [2]; 1.84 OD450 in [3]; 1.6 OD450 in experiment [4]; 0.33 OD450 in experiment [7]; 0.23 OD450 in experiment [8]. This molecule also yielded an OD450 in experiment [9] of 1.92 OD450. Moreover, the “EC50 (read off the curve)” value in [5] is ~0.03 nM. In addition, the binding result (in experiment [6]; in the experiment with human CD22 domain5-7-His) was “no binding (tested: 100 nM)” in each case.

B2: F1.62.10 (antibody, human IgG1, kappa, V domains shown)
VH: QVQLQQSGPELVKPGASVKISCKASGYEFSSIWMNWVKQRPGEGLEWIGRIFPGDGEINYNEKFKGKATLTADRSSTTAYMQLSSLTSEDSAVYFCAGWRIYYGTYGAMDYWGQGTSVTVSS
VL: DIQMTQITSSLSASLGDRVTISCRASQDIGNYLNWYQQKPDGTVKLLIYYTSRLHSGVPSRFSGSGSRTDYSLTISNLQQEDIATYFCQQGNTLPWTFGGGTKLEIKR
notes: Human-murine chimeric IgG1, kappa
With B2, the OD450 in [1] amounted to 2.93 OD450; in experiment [2], 1.07 OD450; in experiment [3] it was 2.79 OD450; in experiment [4], 2.16 OD450; in [7] it was 0.37 OD450; in experiment [8] it was 0.24 OD450. Further, in experiment [9], the OD450 was determined as 2.67 OD450. Moreover, the “EC50 (read off the curve)” value in experiment [5] is ~0.02 nM. The binding result (in [6]; with human CD22 domain5-7-His) was “no binding (tested: 100 nM)” throughout.

B3: F1.161.7 (antibody, human IgG1, kappa, V domains shown)
VH: QVQLQQPGAELVKPGASVKMSCKASGYTFTSYWISWVKQRPGQGLEWIGDIYPGTGSSNYNEKFKSKATLTVDTSSSTAYMQLSSLTSEDSAVYYCARLKFEGIGYWGQGTTLTVSS
VL: QIVLTQSPAIMSASLGEEITLTCSASSSVSYMHWFQQKSGTSPKLLIYSISNLASGVPSRFSGSGSGTFYSLTISSVEAEDAADYYCHQWSSYPWTFGGGTKLEIKR
notes: as for B2
On to B3, for which the OD450 in experiment [1] was 2.97 OD450; in experiment [2], 1.22 OD450; in experiment [3] it was 2.61 OD450; in experiment [4], 2.34 OD450; in experiment [7], 0.43 OD450; in [8], 0.25 OD450. The same molecule yielded an OD450 in experiment [9] of 2.63 OD450. The “EC50 (read off the curve)” value in experiment [5] is ~0.02 nM. Also, the binding result (in experiment [6]; with human CD22 domain5-7-His) was “no binding (tested: 100 nM)” throughout.
